Where two headings read alike, the source gives them in different places.
Experiments:
[1] = biological target: microtubules of primary rat hippocampal neurons (rat (endogenous in primary hippocampal neurons)) (UniProt P68370)
[2] = biological target: microtubules of primary rat hippocampal neurons (rat (endogenous in primary hippocampal neurons)) (UniProt P68370); test: FRAP + reaction-diffusion simulation
[3] = biological target: microtubules of primary rat hippocampal neurons (rat (endogenous in primary hippocampal neurons)) (UniProt P68370); remark: listed apart in the source
[4] = biological target: microtubules of Tau-knockout mouse neurons (mouse (endogenous in Tau-KO neurons)) (UniProt P68369)
[5] = biological target: microtubules of primary rat hippocampal neurons (rat (endogenous in primary hippocampal neurons)) (UniProt P68370); test: FRAP + reaction-diffusion simulation; remark: listed apart in the source

Row | FRAP recovery plateau in rat neurons (Figure 3B) [1] | Kd [2] [nM] | other results | Substance
1 | 0.586 |  |  | GFP-tagged Tau 198A single alanine substitution mutant (natural protein)
2 |  | 905 |  | GFP-tagged Tau 198A/199A mutant (2A) (natural protein)
3 |  | 510 |  | GFP-tagged Tau 198A/199A/202A/205A mutant (4A) (natural protein)
4 | 0.584 | 1350 |  | GFP-tagged Tau 199A single alanine substitution mutant (natural protein)
5 | 0.712 | 3000 | FRAP recovery rate constant (K) in rat neurons (Figure 3D), n = 12 [3]: 0.081; FRAP recovery rate constant (K), n = 6 (read as Tau-KO neurons) [4]: 0.085; koff [5]: > 0.3 s⁻¹; kon [5]: > 100000 M⁻¹ s⁻¹; koff [2]: > 0.1 s⁻¹; kon [2]: > 300000 M⁻¹ s⁻¹ | GFP-tagged wild-type human Tau, 0N4R isoform (AcGFP-Tau0N4R-His) (from UniProt P10636-6 1-383) (natural protein)

Reference: article doi:10.1101/2025.11.11.687775
